The source of these data is patent publication US20100041597A1 (published 2010).

Assay [1] has as its target T1, PKC-ε (endogenous, human cell extracts) (human, UniProt Q02156 1-737).
T1 construct: Two bands on the blot, said to be alternate splicing variants; also called PKC-epsilon; PKC-ε Band 1
T1 sequence (looked up): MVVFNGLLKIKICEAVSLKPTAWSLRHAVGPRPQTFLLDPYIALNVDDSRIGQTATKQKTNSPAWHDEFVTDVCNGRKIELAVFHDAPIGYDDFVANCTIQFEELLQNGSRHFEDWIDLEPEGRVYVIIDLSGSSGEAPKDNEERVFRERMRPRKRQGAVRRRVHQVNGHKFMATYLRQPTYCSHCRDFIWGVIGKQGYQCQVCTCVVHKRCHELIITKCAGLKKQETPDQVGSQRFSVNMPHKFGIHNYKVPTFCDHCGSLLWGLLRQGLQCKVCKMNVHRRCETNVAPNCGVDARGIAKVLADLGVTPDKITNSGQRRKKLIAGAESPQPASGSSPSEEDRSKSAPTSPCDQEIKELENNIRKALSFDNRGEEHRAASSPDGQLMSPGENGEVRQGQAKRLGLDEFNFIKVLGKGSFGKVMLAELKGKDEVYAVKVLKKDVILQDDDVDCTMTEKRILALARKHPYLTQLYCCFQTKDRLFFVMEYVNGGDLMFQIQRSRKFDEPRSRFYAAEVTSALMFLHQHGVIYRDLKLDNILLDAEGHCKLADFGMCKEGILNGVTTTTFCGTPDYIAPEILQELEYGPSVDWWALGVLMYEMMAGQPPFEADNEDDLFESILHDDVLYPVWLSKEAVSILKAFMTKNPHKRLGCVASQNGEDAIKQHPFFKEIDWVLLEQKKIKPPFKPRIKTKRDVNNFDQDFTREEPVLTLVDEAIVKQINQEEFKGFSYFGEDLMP
The experiment in a line: Western-blot competition on cell extracts against the anti-PKC-ε primary antibody; band densitometry.

The target in assay [2] is T2, PKC-ι (endogenous, human cell extracts) (human, UniProt P41743 2-596).
T2 construct: also called PKC-iota
T2 sequence (looked up): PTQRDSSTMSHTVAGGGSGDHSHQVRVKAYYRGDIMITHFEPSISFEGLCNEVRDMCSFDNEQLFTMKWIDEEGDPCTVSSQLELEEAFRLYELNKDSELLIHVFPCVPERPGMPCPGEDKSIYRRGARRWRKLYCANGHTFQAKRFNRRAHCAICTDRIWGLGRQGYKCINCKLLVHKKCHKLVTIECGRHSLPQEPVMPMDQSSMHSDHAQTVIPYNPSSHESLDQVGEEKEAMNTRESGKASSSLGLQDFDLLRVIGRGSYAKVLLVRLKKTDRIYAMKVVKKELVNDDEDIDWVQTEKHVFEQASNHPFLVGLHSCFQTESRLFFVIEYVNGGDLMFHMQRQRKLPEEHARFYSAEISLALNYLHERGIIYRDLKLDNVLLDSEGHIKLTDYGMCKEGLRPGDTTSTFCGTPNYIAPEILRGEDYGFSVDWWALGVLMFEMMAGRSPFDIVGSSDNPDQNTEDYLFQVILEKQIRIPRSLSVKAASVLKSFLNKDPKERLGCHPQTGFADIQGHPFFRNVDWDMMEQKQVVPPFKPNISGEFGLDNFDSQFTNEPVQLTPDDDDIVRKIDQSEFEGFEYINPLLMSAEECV
The experiment in a line: Western-blot competition on cell extracts against the anti-PKC-ι primary antibody; band densitometry.

Assay [3] concerns the target T1, PKC-ε (endogenous, human cell extracts). Kind of assay: Western-blot competition on cell extracts against the anti-PKC-ε primary antibody; band densitometry. As to the method:
Binding efficiency and specificity of the peptides PRE 2, 3, 4, 5, 6, 7, 8, 9, 10, 11, 12 and 13 (see Table 3) was also tested using cytoplasmic extracts from different cell lines expressing appropriate PKC isoforms as described for Example 1. Briefly, the protein cytoplasmic extracts were separated by electrophoresis and transferred onto nitrocellulose membranes by standard Western blotting procedures. The bands on the Western blots were detected with matching primary antibodies and alkaline phosphatase conjugated secondary antibody. The bands were then scanned and the relative density measurements obtained.
This procedure to assess the binding characteristics of the PREs is based on competition binding of the PRE with the primary anti-isoform PKC specific antibodies. The lower the measured band density, the greater the binding of the PRE to the PKC isoform. The PREs were added at 10 and 20 times (10×, 20×) the primary antibody concentration, according to classical competition between antigenic peptide and primary antibody. The following cell lines (obtained from the ATCC) were used: H661—NCI human lung carcinoma NSCLC; MDAMB231—human highly invasive breast cancer cell line from pleural effusion; LS180—human colon adenocarcinoma; LnCAP—human prostate adenocarcinoma; CCD16Lu—human lung fibroblasts; Du145—human prostate carcinoma brain metastasis, and T24—human bladder carcinoma.
This is another data set of the same source.

The target of another assay is T3, PKC-ζ (purified isoform) (Homo sapiens (Human), UniProt Q05513 1-592).
T3 construct: also called PKC-zeta; PKCzeta
T3 sequence: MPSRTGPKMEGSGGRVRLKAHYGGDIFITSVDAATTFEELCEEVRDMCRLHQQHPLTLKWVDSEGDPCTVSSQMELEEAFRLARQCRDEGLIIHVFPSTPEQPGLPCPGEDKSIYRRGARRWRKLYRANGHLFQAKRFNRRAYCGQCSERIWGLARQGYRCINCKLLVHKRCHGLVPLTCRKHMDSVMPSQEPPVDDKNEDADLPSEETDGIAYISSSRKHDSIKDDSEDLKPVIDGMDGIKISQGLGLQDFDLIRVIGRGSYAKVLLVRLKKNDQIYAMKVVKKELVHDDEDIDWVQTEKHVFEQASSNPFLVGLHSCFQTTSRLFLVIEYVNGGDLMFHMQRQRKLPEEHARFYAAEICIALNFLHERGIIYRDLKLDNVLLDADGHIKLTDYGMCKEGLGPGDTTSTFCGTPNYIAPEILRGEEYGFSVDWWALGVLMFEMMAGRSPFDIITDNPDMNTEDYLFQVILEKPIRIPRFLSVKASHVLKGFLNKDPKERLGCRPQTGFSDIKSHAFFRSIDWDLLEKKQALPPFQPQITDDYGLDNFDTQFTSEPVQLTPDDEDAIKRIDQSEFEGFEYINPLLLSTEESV
Kind of assay: competitive binding assay on purified isoforms: PRE 4 at 20X against the fluorescent anti-PKC-zeta antibody.

Assay [4] concerns the target T4, PKC-ζ (endogenous, human cell extracts) (human, UniProt Q05513 1-592).
T4 construct: also called PKC-zeta
T4 sequence (looked up): T3 sequence
Kind of assay: Western-blot competition on cell extracts against the anti-PKC-ζ primary antibody; band densitometry.

Like-named read-outs stand apart in the source and are kept apart here.

B1: PRE 12 (peptide)
peptide: Ac-KDAQNLI-NH2
notes: Synthetic peptide; also called peptide PRE 12; Ac-KDAQNLI-NH2
With B1, the binding result in assay [1] and in assay [2] was “no binding (tested: 20X the primary antibody concentration)” throughout.

B2: PRE 13 (peptide)
peptide: Ac-RDAQNLI-NH2
notes: Synthetic peptide; also called peptide PRE 13; Ac-RDAQNLI-NH2
Take B2: the binding result in assay [3] was “no binding (tested: 20X the primary antibody concentration)”.

B3: PRE 4 (peptide)
peptide: Ac-KDAQNLIGISI-NH2
notes: Synthetic peptide; also called peptide PRE 4
With B3, the binding result with PKC-ζ (purified isoform) is on record as “no binding (tested: 20X)”.

B4: PRE 11 (peptide)
peptide: Ac-RDAQNLIGISI-NH2
notes: Synthetic peptide; also called peptide PRE 11
As for B4, in assay [4], the binding result is “no binding (tested: 20X the primary antibody concentration)”.
